# Results reported in the domain aggregation screens of Martell et al. (2025).
# Test: soluble fraction after stress (log2 fold change); higher = more stays soluble; pooled small domains, quantitative proteomics
# Details: stress: pH 4
# Summary of the method: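 High-throughput quantitative proteomics was run on pooled custom libraries of small protein domains following pH 4 stress. Fold changes are on a log2 scale; higher values mean more of a domain remained soluble. The fold change in soluble amount is taken as a measure of aggregation propensity.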
row,Sequence,soluble fraction (log2)
1,HMGSLAVVPSLTGKTLQEAQSKAADYGLALEIEGYVASTAVDYGRIVSQSPDAGFSVKSGSSVKVSVSAG,≥ 0.43
2,HMAQVSDDAELEKWADTAIDEHPKPVEEYRAGNAASINFLMGQVMKMSRGKANPGAVMQILKQKLD,0.22
3,HMLDPYNVLGVPRDAGMDEIKKAYRKLSRTYHPDANIDNPNKAQAEEKFKQIQEAYQQIVKERTE,-0.152
4,HMEEINTAPVFKNIIEIAEYAKTKFTTVEEIPKMIEFIETANSKLDNPHDEESVNELINALSTNIRKNV,-0.554
5,HMPRIYSITINPEKIRTVIGPGGKVIKDITAKTGTKIEIDDSGKVDIFSPDEEHARMAVEIINTLTEE,-0.221
6,HMSMPEVLSDRELEIFRMIGTGMSTGDIAKKLNISVNTIESHRKKIKDKLGIQKGSELVKAAVQWVSTQQ,-0.219
7,HMGVPELHKGEIVQAVVEKVLGEGLLRVNLKGMTVEAATSLRLNPGQQLLLRSEGIENGRQVLR,0.042
8,HMDAEVEHLFRIIAELKEKNVAIIYISHKMDEIFRISDDITVYRDGEYIATDRAENLNVDKVIQLMVGREV,-0.538
9,HMTNEWRKILSNLNGKYQIVMELFYVDGFSTKEIARMLHITEVNVRSRMVRGRKQLEQILTVR,0.0998
10,HMIDKIRYPELIMKLAHQQGGTIKRRDVEQLLHLQTKQAYRELSKLVDAGELVSVGRGPGAHYEVS,-0.0885
11,HMVEREYRLEVPPEAEGKRLDQFLVNQPVQLSRSQVQHLIQNGLVLVNAKTRRSSYRVHTGDIIEMQVPA,-0.088
12,HMESVDRIYERVRRYADDVGTAKIPMKELDDDGPLGTAVSRIRERRKRGELTEEWEARFETLPGWTWAA,-0.265
13,HMDEEDVLNELIRRLALTADDRLLLSLSYEDGLSSRKIATLLETSAATVQRRLAGLHHQLEQALRVMGLA,-0.828
14,HMSAAELFEERQRQYLRGRKSTKNIADNHGTIILRAGETITDQAIDKAKVAGKLVELVMNNE,0.144
15,HMSENIQLQKEQLYQLIAQLPEQRQKIFRLHKIDNYSYQEISDFTGLSRKTIANHIYLAHQFILKKVKK,-0.28
16,HMSINTIIAKNLNRLRNERNLSLGQLAELSGVSKVMLSQIEKGDSNPTVNTIWKIASGLNVPYTAILDQP,0.22
17,HMDNEVTIAVQVNGKLRDKLIVALDTPNEKIEQLALALPKVIQNTSGLTVRKVIVIPNRLVNIVA,0.123
18,HMSGDYRALYSSLPPERASSVVDALNVAGIPYRIQDSTGAIMVPAEQIYDARIRLAGQGLGK,0.0695
19,HMQMLQDPFLNALRKEHVPVSIYLVNGIKLQGQVESFDQYVVLLRNTSVTQMVYKHAISTIVPARAVSL,-0.412
20,HMSVETSDLLPLIEQVLSLNPDKVKEYQNGKKGLLGFFMGQIKQTAGVAIDVGTLKPLLEDALHKDL,-1.06
21,HMTYIQSNLKFLRNKMNISQEELAKRLFVTHQTVSNHENGKSQPNFEMIEKYASFFNVPFEDLIHKDLSL,-0.309
22,HMAVANEAIANINMKEVKQAIHNLPEIFKNPFLLYFDGYKYHEIAEMLDEPLGTIKSRIHFARKLLKSHI,0.22
23,HMLDSNILTLIKELKIRHHFTATQTHQLEKVIQQAHALGLDNSEIRSLANSSPSAKSLINDLNQKLEPLRL,≥ 0.43
24,HMNIEDFKDKVKELKQYTYQELVEDVKLKTDRADVILPASKIYLEAMQQAKVDSIIVPKVGLAEGVAR,0.149
25,HMANILKHKNKDGVITSYTIRVYHGYDEAGKRLRPYTMNYKPAPNMTARQIEKELNRQAVQFEEQIKNGYA,-0.182

row,Sequence,soluble fraction (log2)
1,HMKNNLKGSPIIIAGGYGVGSKENFNLLFDLAKVLNAEVGASRAAVDAGFVEHDRQIGQTGVTVRP,-0.0469
2,HMSSLTPRETEVLSRMAQGDANTSIAERLVITEKAVQKHINAIFAKLGLAEEPTSARRVLAVLAFLR,-0.407
3,HMAEVDREEALRIALAHAAVARRDVRNLKIERGEENGVPVYKVEFETAFGDFDVAVSRRSGDVVDAD,-0.0548
4,HMNTLLGLSNSFQDNKDLENANSISRRFISYRPRSEAELRIRLLKVFSHEIVLESVAQMYREGLLNDQRF,-1.65
5,HMPIRMLQVQKTNTGYLNVRDTPSVSGALIGKVFPGDMLSSTEERDGWFLVAVPQGGTGWVSGDYVKTTS,0.0778
6,HMDPPQEVWDLTRSYLDSMNRPVHGHKSPQETYLRQVKSHRLPATALWDYFMAQRFHAVHATSESAA,-0.364
7,HMWSNTAVIDRIRQLHEEGQPISSQSVQVNHKSLYMAAIKRFRGWKRAVEAAGIDYRQIRLR,0.404
8,HMTYNIPEHYQTIDVKEYVRKLVSDGDSDQIGRVEMELTEFETRNLFPVLKVLIYIIDTMRK,-1.73
9,HMVEYFDDENLDAFIGRESDSYTEKEIEQFREILYTMNQKEVADWNRSLTIRGINIPNDLKDEMIMMI,-2.71
10,HMSEQSEALRTGLDQLPINQRTALTLFHLHELNQSEVAKIMNISVGAVESLLFRGRQKMKQLLTSD,-0.157
11,HMGQVAKPPLKELGADPVTGKPMVLKDGRFGPYVTDGEYNASLRKDDDIETIGVERAAELLQIRREKGP,-0.0291
12,HMGVREIIVQFLEQFDKPKSVQEIVEYVLRYRNTTENSIRSTMYSGSQFRQFDNGYFGLSDKSYPNEYIYA,-1.25
13,HMHDYTTIIGVIELRLNKISYDNVQKRYRIGRSGISLIMERYRDSGLSLDDLKQMPAEKVVNLIYPKD,-0.108
14,HMSKQKRIKYFLSILNIKSIKQFRKKDLDYFYQKRFIEIQKSSKDKKLVSNQLIELNAAKEYLDEIDFEN,0.295
15,HMYSYNKEEVGKRIKSIRQQKGLTQESFGELFGASKGNVATWEKGISLPNASRLREIADLVSITVEELLYG,0.00486
16,HMTSLYDILGIAKTADSQTIKTAFKKKALLYHPDKNNGNLKKEEIFKKISTAYQILSDPKSRANYDLSIA,0.22
17,HMPRYQQIARQLKTAIEHGELKPGARLPSSRTWSQELGISRSTVESAYTELVAQGWLERRGQAGTFVSAQL,0.0517
18,HMRNSVQREWIYDYIQRQDAHLSADEIYEGLLKEGKNISLATVYRNLSILVDEYKIASVMTDSKKQVYDK,-0.327
19,HMTLTIEDGYVNAKLKTTVEGLAEDSTIKVDSIEYTNAGKNDILTVFVEDKPYRVEKYKINIAPEDS,-1.12
20,HMWKQISSEAELLPAVRSVIQANPGEAEKLRNGEMAPLEFLTGLVMKKTNGMAVPQIVKTLIKKELKI,0.0805
21,HMLWTDTKYVTVPDFVGKEPKEIESSYLYNIEYHGEGTKVISQQPAAFSRTIEGGTVRLYLG,0.186
22,HMYSIKEFSFEVTTPGQRLDLFLSEELIGQTRSSIQNLILKKYVTVNGQVSKASYKVKTGEFISVKIPV,0.22
23,HMDKLFNRQTLGGVELTQKQIEDLNAGKAIFVEGMQRKDGEVFSSYVKLDEATGRPSYTRYNPDSP,0.0109
24,HMGHASPGNREALQFALERHQARAAEFAEKAGLSIANASTKFKQLWEQGFLMRNESVADSGGVEFLYQR,-0.0683
25,HMKVKIFNGMKLVTNSTGLTVDGKPAALDESNADAKTYSQGLYVFIVYQSGKIAVMQDGKFLGYA,0.301

row,Sequence,soluble fraction (log2)
1,HMTPTNILIVEDEKEIRRFVRTALESEGLRVFESETLQRGLIEAGTRKPDLIILDLGLPDGDGLSYIRDLR,-0.662
2,HMKTPIEFGSVYNDPVRYVIGMSIKSAESINQAIYDMMKIFGDENNMNKFDSLPDEQAVLDMVNSF,-0.208
3,HMIALKNLREEKRMTQAELSKDLEISPSAIGMYEQGRRVPDVSTLKKISAYFNVSIDYLLGNSTSKDI,-0.0244
4,HMPPRFVPATGADLRRWLDVSGLTAEAAGDLLGVSGARFRQWLSRYRSAPLPDPVRALLVALLRP,-0.156
5,HMEDAFLQRLISIIEANLSNVDFNVKMLAEQLNMSQPTLYRKVKQRSELSVIDMIRSIRILSLIHISEPTR,-0.919
6,HMGHYGQMTRDLIEKAKTYEEGEEKAALVLTIANLMKRHYLTWNRATVENTLIAEQLKEMSEGALTLPEDV,-0.962
7,HMTSEPFYNPRRPQPYWTSETDRHTTYADAVRALAREFSETPEWVESNMGETNDLQEIRRNLSRVKSG,-0.108
8,HMDVNSRIRQFLKKMKITVQTFESSIGKTNGYIAHTKSPTAGVLAEIAKVYPDLNLDWLITGEGEMLKN,-0.0635
9,HMNPASVLDGLKITSFSPTRAIVAGPGGSRIVFDNEAVVLGGIEWDVHIQRNGIEFTSQGQTVLLLFDRS,-0.514
10,HMPTITSPMVGTFYRAPSPGAAPFIEVGDTVKKGQVIGIIEAMKLLNEVEADKDGVVQAFAAENGEL,-0.681
11,HMYKTKVDIAYDMLMERITEGVYKPGEKLVITHISKELGISDIPVREAIRRLESEGYVKILPNQGAIVYD,-0.185
12,HMPRPRIHSVVRGDTLYGISRQYGVAMSKLASLNGLKSPYRIMVGRSLRLPSAIEAERDRTAREVVQ,0.208
13,HMTHPQVEAYLDDLARMLADIDPGERDDILASVREHLDAEIAAGHGSDAVVNATLLRLGPPEQVAAAARTN,-0.899
14,HMQEAGLITQRIREMREKENWTQEYMAEQLGMSENGYAKIERGESNLSLKRLQQIADIFEVESAELLK,-0.566
15,HMLTGESDNVEKSINKLGTENLALADQTNMGFKGTFINSGHGMAIVVKTGMQTELGKIASMIQIA,0.22
16,HMTVGEAHLEEVYLKVLKQVEEQGTALIRTTDVETGRPAAGIRRRYMRGTLPDEWVAKFEALPGWTWAPG,-0.952
17,HMGRFPSLTPVVIDALTAQYREHPGWTVQLHVDNLRVVLAANQTPLPSYPTIRRYLLAQGMRRQTRP,-0.176
18,HMIMDQTILRKQRELTDRLNRYRNEYYNHNKPSVSDEVYDRLFDELQSLEKETGVQMANSPTTTVG,0.0972
19,HMNTVSVGNLGLSVRAVNALKQAGIDTYDKLQELSWEELLLIPKLGQVTAAEIYRFITSYKKG,-0.491
20,HMKEDSTIIERIISNLSSASLKTQKAFEYKLTDLMFRFSEGEYEWSSAMEVIREELLPFLNK,-0.645
21,HMEPDEIVLDHRKRIENSDAIVLIAPIWNFRMPAILEGWIDKVLAPPWAFKFKKLFGNYGYPVGNLKG,-0.121
22,HMSELTKEIGKRIHDFRKSRGLNQEELARLIYKSKATLSKYEKGEIAIDLDTLKQLALALHVRMEQLLPPT,≥ 0.43
23,HMPGSGELSRRLELAIRDRTAVRVTAAAAGQERSFTLLPVAITSGRLRATDEQAGVQRTLPLSAIVAVEA,-0.135
24,HMSQDINVFIKTNPENATIIWDGESKGTNGIFKSNAGAHRLRIEMQGYESIDQDIQVSDKQFSFEYNLKKE,0.22
25,HMAVVAPLAGSVARVLVADGDEIEAGQVLLVLEAMKMETEITAPKAGKVGAILVGKGDSVQGGQGLR,-0.249
